Patent US20170298146A1 (MODIQUEST B V, published 2017)
Non-standard residues stand in square brackets, D forms with d. No end group written: not given here. Cit = NC(=O)NCCC[C@H](N)C(=O)O

Experiments:
Assay in all cases: peptide ELISA, 0.4 ug/well
[1] = target: T1, Histone 2A citrulline-containing peptide 1 (human, also: biotin label)
T1 construct: also called AAASGXGKQGGK
T1 peptide: AAASG[Cit]GKQGGK
Method: (§1) Biotin and citrulline-containing peptides derived from histone 2A were immobilized on NEUTRAVIDIN®-coated 96-well ELISA plates (0.3 μg/well). CFC-1 and CFC-0 were coated at the same concentration and served as positive and negative controls respectively for specific anti-citrulline reactivity and as coating controls. Non-coated wells were used to test for aspecific binding of the antibodies. […] Detection of bound anti-citrulline antibodies was performed by incubating the wells with rabbit-anti-human-HRP (1:2000) for one hour at RT followed by incubation with TMB substrate. The resulting OD (y-axis) is a measure for antibody binding.
(§2) Ninety-six-well ELISA plates were coated with NEUTRAVIDIN® (0.1 μg/well) by overnight incubation at 4° C. Wells were washed five times with PBS-TWEEN®-20 (PBS-T) and blocked by a one-hour incubation with PBS-T+1% Bovine serum albumin (BSA) at room temperature (RT). After five more washes with PBS-T, wells were incubated for one hour at RT with histone-derived citrulline and biotin-containing peptides (0.3 μg/well). […] Wells were washed five times with PBS-T and incubated with rabbit-anti-human-HRP (1:2000) for one hour at RT followed by five washes with PBS-T and three wash steps with PBS. Wells were incubated for five minutes with TMB substrate before stopping the reaction with 2 M H₂SO₄. Optical density was measured by 450 nm and is a measure for the affinity of the antibodies used.

[2] = target: T2, Histone 2A citrulline-containing peptide 2 (human, also: biotin label)
T2 peptide: AKAKS[Cit]SSRAGL
Method: as §1, §2

[3] = target: T3, Histone 2A citrulline-containing peptide 8 (human, also: biotin label)
T3 peptide: AGNAA[Cit]DNKKTR
Method: as §1, §2

CFC-1 = target: T4, CFC-1
T4 construct: Positive control for anti-citrulline reactivity; also called cfc1 XG
Method: as §1, §2

[4] = target: T5, Histone 2A citrulline-containing peptide 7 (human, also: biotin label)
T5 peptide: GNYSE[Cit]VGAGAP
Method: as §1, §2

[5] = target: T6, Histone 2A citrulline-containing peptide 4 (human, also: biotin label)
T6 peptide: QFPVG[Cit]VHRLLR
Method: as §1, §2

[6] = target: T7, Histone 2A citrulline-containing peptide 11 (human, also: biotin label)
T7 peptide: LQLAI[Cit]NDEELN
Method: as §1, §2

[7] = target: T8, Histone 2A citrulline-containing peptide 9 (human, also: biotin label)
T8 peptide: DNKKT[Cit]IIPRHL
Method: as §1, §2

[8] = target: T9, Histone 2A citrulline-containing peptide 10 (human, also: biotin label)
T9 peptide: TRIIP[Cit]HLQLAI
Method: as §1, §2

[9] = target: T10, Histone 2A citrulline-containing peptide 12 (human, also: biotin label)
T10 peptide: NKLLG[Cit]VTIAQG
Method: as §1, §2

[10] = target: T11, Histone 2A citrulline-containing peptide 5 (human, also: biotin label)
T11 peptide: VGRVH[Cit]LLRKGN
Method: as §1, §2

B1: RhmAb2.102 (antibody, human IgG1, lambda)
heavy: not shown
light: QSVLTQPPSMSAAPGQKVTISCSGSSSNIGNNYVSWYQQVPGTAPKLLIYDDNKRPSGIPGRFSGSKSATSATLGITGLQAGDEADYYCGSWDDNLSVVLFGGGTKLTVLGQPKAAPSVTLFPPSSEELQANKATLVCLISDFYPGAVTVAWKADSSPVKAGVETTTPSKQSNNKYAASSYLSLTPEQWKSHRSYSCQVTHEGSTVEKTVAPTECS
notes: Human IgG1 lambda; also called Rhm2.102
Question: B1 was tested. Which OD [1] did it give?
Answer: 2.8 OD

Question: And the OD [2]?
Answer: 0.136 OD

Question: And the OD [3]?
Answer: 0.061 OD

Question: And the OD (CFC-1)?
Answer: 3.06 OD

Question: And the OD [4]?
Answer: 0.064 OD

Question: What about the OD [5] of the same binder?
Answer: 0.564 OD

Question: And the OD [6]?
Answer: 0.064 OD

Question: What about the OD [7] of the same binder?
Answer: 0.057 OD

Question: What about the OD [8] of the same binder?
Answer: 0.051 OD

Question: What about the OD [9] of the same binder?
Answer: 0.061 OD

Question: What about the OD [10] of the same binder?
Answer: 0.082 OD
